{"source": "the supplement of paper PMC7125110", "parents": {"B1": {"name": "glmS ribozyme (parent)", "chain": "AUAAAAGCGCCAGAACUACAGAAAUGUAGUUGACGAGGAGGAGGUUUAUCGAAUUUUCGGCGGAUGCCUCCAAA"}}, "conditions_in_all_cases": "with glucosamine-6-phosphate", "key": {"glucosamine-6-phosphate [1]": {"variants_of": "B1", "test": "kcat; higher = faster cleavage; RNA array", "how_it_was_run": "(§1)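 Tiles bearing barcoded ribozyme variants, transcribed in situ by E. coli RNA polymerase on sequenced MiSeq chips, were imaged over ~14 h at 37 °C using a hybridised Cy3 probe. Glucosamine-6-phosphate was supplied at 40 μM to 10 mM in HEPES/KCl/Mg(OAc)2 buffer. kobs came from one- or two-exponential decay fits to normalised per-tile medians, and weighted Michaelis–Menten fits then provided kcat and KM.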"}, "glucosamine-6-phosphate [2]": {"variants_of": "B1", "test": "KM; higher = weaker cofactor use; RNA array", "how_it_was_run": "as §1"}, "glucosamine-6-phosphate [3]": {"variants_of": "B1", "test": "self-cleavage kobs at 160 uM GlcN6P; higher = faster cleavage; RNA array", "how_it_was_run": "as §1"}, "glucosamine-6-phosphate [4]": {"variants_of": "B1", "test": "self-cleavage kobs at 640 uM GlcN6P; higher = faster cleavage; RNA array", "how_it_was_run": "as §1"}, "glucosamine-6-phosphate [5]": {"variants_of": "B1", "test": "self-cleavage kobs at 2500 uM GlcN6P; higher = faster cleavage; RNA array", "how_it_was_run": "as §1"}, "glucosamine-6-phosphate [6]": {"variants_of": "B1", "test": "self-cleavage kobs at 10000 uM GlcN6P; higher = faster cleavage; RNA array", "how_it_was_run": "as §1"}, "glucosamine-6-phosphate [7]": {"variants_of": "B1", "test": "self-cleavage kobs at 40 uM GlcN6P; higher = faster cleavage; RNA array", "how_it_was_run": "as §1"}}, "note": "± gives the standard error. For some assays here: Fewer inactive variants are shown than the library holds.", "data": [{"variant": "C16U G41C", "values": [{"measurement": "kcat", "setting": "glucosamine-6-phosphate [1]", "value": "0.000304 ± 4.3e-05", "unit": "s⁻¹"}, {"measurement": "KM", "setting": "glucosamine-6-phosphate [2]", "value": "1.03 ± 0.37", "unit": "mM"}, {"measurement": "self-cleavage kobs at 160 uM GlcN6P", "setting": "glucosamine-6-phosphate [3]", "value": "2.95e-05 ± 1.4e-05", "unit": "s⁻¹"}, {"measurement": "self-cleavage kobs at 640 uM GlcN6P", "setting": "glucosamine-6-phosphate [4]", "value": "0.000139 ± 3.6e-05", "unit": "s⁻¹"}, {"measurement": "self-cleavage kobs at 2500 uM GlcN6P", "setting": "glucosamine-6-phosphate [5]", "value": "0.000244 ± 3.8e-05", "unit": "s⁻¹"}, {"measurement": "self-cleavage kobs at 10000 uM GlcN6P", "setting": "glucosamine-6-phosphate [6]", "value": "0.000246 ± 4.5e-05", "unit": "s⁻¹"}]}, {"variant": "G13C A15G U45A", "values": [{"measurement": "kcat", "setting": "glucosamine-6-phosphate [1]", "value": "0.000289 ± 4.4e-05", "unit": "s⁻¹"}, {"measurement": "KM", "setting": "glucosamine-6-phosphate [2]", "value": "3.49 ± 0.95", "unit": "mM"}, {"measurement": "self-cleavage kobs at 40 uM GlcN6P", "setting": "glucosamine-6-phosphate [7]", "value": "< 1e-05", "unit": "s⁻¹"}, {"measurement": "self-cleavage kobs at 640 uM GlcN6P", "setting": "glucosamine-6-phosphate [4]", "value": "4.01e-05 ± 1.3e-05", "unit": "s⁻¹"}, {"measurement": "self-cleavage kobs at 2500 uM GlcN6P", "setting": "glucosamine-6-phosphate [5]", "value": "0.000129 ± 2.4e-05", "unit": "s⁻¹"}, {"measurement": "self-cleavage kobs at 10000 uM GlcN6P", "setting": "glucosamine-6-phosphate [6]", "value": "0.000208 ± 4.4e-05", "unit": "s⁻¹"}]}, {"variant": "U31A G59A", "values": [{"measurement": "kcat", "setting": "glucosamine-6-phosphate [1]", "value": "0.000128 ± 1.5e-05", "unit": "s⁻¹"}, {"measurement": "KM", "setting": "glucosamine-6-phosphate [2]", "value": "2.71 ± 0.74", "unit": "mM"}, {"measurement": "self-cleavage kobs at 640 uM GlcN6P", "setting": "glucosamine-6-phosphate [4]", "value": "2.94e-05 ± 1.4e-05", "unit": "s⁻¹"}, {"measurement": "self-cleavage kobs at 2500 uM GlcN6P", "setting": "glucosamine-6-phosphate [5]", "value": "5.49e-05 ± 1.7e-05", "unit": "s⁻¹"}, {"measurement": "self-cleavage kobs at 10000 uM GlcN6P", "setting": "glucosamine-6-phosphate [6]", "value": "0.000104 ± 2.3e-05", "unit": "s⁻¹"}]}, {"variant": "A12U G37A G40C", "values": [{"measurement": "kcat", "setting": "glucosamine-6-phosphate [1]", "value": "0.00099 ± 0.00024", "unit": "s⁻¹"}, {"measurement": "KM", "setting": "glucosamine-6-phosphate [2]", "value": "4.22 ± 1.4", "unit": "mM"}, {"measurement": "self-cleavage kobs at 160 uM GlcN6P", "setting": "glucosamine-6-phosphate [3]", "value": "2.74e-05 ± 1.2e-05", "unit": "s⁻¹"}, {"measurement": "self-cleavage kobs at 640 uM GlcN6P", "setting": "glucosamine-6-phosphate [4]", "value": "0.000134 ± 1.7e-05", "unit": "s⁻¹"}, {"measurement": "self-cleavage kobs at 2500 uM GlcN6P", "setting": "glucosamine-6-phosphate [5]", "value": "0.000386 ± 9.8e-05", "unit": "s⁻¹"}, {"measurement": "self-cleavage kobs at 10000 uM GlcN6P", "setting": "glucosamine-6-phosphate [6]", "value": "0.000686 ± 0.00012", "unit": "s⁻¹"}]}, {"variant": "C11U G38C", "values": [{"measurement": "kcat", "setting": "glucosamine-6-phosphate [1]", "value": "< 1e-05", "unit": "s⁻¹"}, {"measurement": "self-cleavage kobs at 640 uM GlcN6P", "setting": "glucosamine-6-phosphate [4]", "value": "< 1e-05", "unit": "s⁻¹"}, {"measurement": "self-cleavage kobs at 2500 uM GlcN6P", "setting": "glucosamine-6-phosphate [5]", "value": "< 1e-05", "unit": "s⁻¹"}]}, {"variant": "U54A C68G", "values": [{"measurement": "kcat", "setting": "glucosamine-6-phosphate [1]", "value": "9.86e-05 ± 2.8e-06", "unit": "s⁻¹"}, {"measurement": "KM", "setting": "glucosamine-6-phosphate [2]", "value": "0.031 ± 0.0075", "unit": "mM"}, {"measurement": "self-cleavage kobs at 40 uM GlcN6P", "setting": "glucosamine-6-phosphate [7]", "value": "5.44e-05 ± 1.6e-05", "unit": "s⁻¹"}, {"measurement": "self-cleavage kobs at 160 uM GlcN6P", "setting": "glucosamine-6-phosphate [3]", "value": "8.95e-05 ± 2.1e-05", "unit": "s⁻¹"}, {"measurement": "self-cleavage kobs at 640 uM GlcN6P", "setting": "glucosamine-6-phosphate [4]", "value": "8.94e-05 ± 1.3e-05", "unit": "s⁻¹"}, {"measurement": "self-cleavage kobs at 2500 uM GlcN6P", "setting": "glucosamine-6-phosphate [5]", "value": "0.000106 ± 1.9e-05", "unit": "s⁻¹"}, {"measurement": "self-cleavage kobs at 10000 uM GlcN6P", "setting": "glucosamine-6-phosphate [6]", "value": "9.77e-05 ± 9.3e-06", "unit": "s⁻¹"}]}, {"variant": "G29C G38A", "values": [{"measurement": "kcat", "setting": "glucosamine-6-phosphate [1]", "value": "< 1e-05", "unit": "s⁻¹"}, {"measurement": "self-cleavage kobs at 40 uM GlcN6P", "setting": "glucosamine-6-phosphate [7]", "value": "< 1e-05", "unit": "s⁻¹"}, {"measurement": "self-cleavage kobs at 10000 uM GlcN6P", "setting": "glucosamine-6-phosphate [6]", "value": "< 1e-05", "unit": "s⁻¹"}]}, {"variant": "A6G U31G", "values": [{"measurement": "kcat", "setting": "glucosamine-6-phosphate [1]", "value": "0.000452 ± 9.7e-05", "unit": "s⁻¹"}, {"measurement": "KM", "setting": "glucosamine-6-phosphate [2]", "value": "4.99 ± 1.6", "unit": "mM"}, {"measurement": "self-cleavage kobs at 640 uM GlcN6P", "setting": "glucosamine-6-phosphate [4]", "value": "4.67e-05 ± 9.4e-06", "unit": "s⁻¹"}, {"measurement": "self-cleavage kobs at 2500 uM GlcN6P", "setting": "glucosamine-6-phosphate [5]", "value": "0.000183 ± 3.2e-05", "unit": "s⁻¹"}, {"measurement": "self-cleavage kobs at 10000 uM GlcN6P", "setting": "glucosamine-6-phosphate [6]", "value": "0.000281 ± 5.8e-05", "unit": "s⁻¹"}]}, {"variant": "U57A C58U", "values": [{"measurement": "kcat", "setting": "glucosamine-6-phosphate [1]", "value": "6.53e-05 ± 2.8e-06", "unit": "s⁻¹"}, {"measurement": "self-cleavage kobs at 10000 uM GlcN6P", "setting": "glucosamine-6-phosphate [6]", "value": "2.39e-05 ± 8.3e-06", "unit": "s⁻¹"}]}, {"variant": "U54G U57A", "values": [{"measurement": "kcat", "setting": "glucosamine-6-phosphate [1]", "value": "0.000134 ± 2.6e-05", "unit": "s⁻¹"}, {"measurement": "KM", "setting": "glucosamine-6-phosphate [2]", "value": "1.54 ± 0.76", "unit": "mM"}, {"measurement": "self-cleavage kobs at 640 uM GlcN6P", "setting": "glucosamine-6-phosphate [4]", "value": "3.49e-05 ± 1.2e-05", "unit": "s⁻¹"}, {"measurement": "self-cleavage kobs at 2500 uM GlcN6P", "setting": "glucosamine-6-phosphate [5]", "value": "0.000118 ± 3.3e-05", "unit": "s⁻¹"}, {"measurement": "self-cleavage kobs at 10000 uM GlcN6P", "setting": "glucosamine-6-phosphate [6]", "value": "0.00011 ± 2.1e-05", "unit": "s⁻¹"}]}, {"variant": "C58U C61A", "values": [{"measurement": "kcat", "setting": "glucosamine-6-phosphate [1]", "value": "6.3e-05 ± 2.6e-05", "unit": "s⁻¹"}, {"measurement": "self-cleavage kobs at 160 uM GlcN6P", "setting": "glucosamine-6-phosphate [3]", "value": "6.42e-05 ± 1.7e-05", "unit": "s⁻¹"}, {"measurement": "self-cleavage kobs at 640 uM GlcN6P", "setting": "glucosamine-6-phosphate [4]", "value": "0.000108 ± 3.4e-05", "unit": "s⁻¹"}, {"measurement": "self-cleavage kobs at 2500 uM GlcN6P", "setting": "glucosamine-6-phosphate [5]", "value": "7.93e-05 ± 1.5e-05", "unit": "s⁻¹"}]}, {"variant": "G13U G32A", "values": [{"measurement": "kcat", "setting": "glucosamine-6-phosphate [1]", "value": "0.00326 ± 0.00047", "unit": "s⁻¹"}, {"measurement": "KM", "setting": "glucosamine-6-phosphate [2]", "value": "3.53 ± 0.71", "unit": "mM"}, {"measurement": "self-cleavage kobs at 40 uM GlcN6P", "setting": "glucosamine-6-phosphate [7]", "value": "4.41e-05 ± 7.3e-06", "unit": "s⁻¹"}, {"measurement": "self-cleavage kobs at 160 uM GlcN6P", "setting": "glucosamine-6-phosphate [3]", "value": "0.000153 ± 1.8e-05", "unit": "s⁻¹"}, {"measurement": "self-cleavage kobs at 640 uM GlcN6P", "setting": "glucosamine-6-phosphate [4]", "value": "0.000465 ± 5e-05", "unit": "s⁻¹"}, {"measurement": "self-cleavage kobs at 2500 uM GlcN6P", "setting": "glucosamine-6-phosphate [5]", "value": "0.00124 ± 0.00013", "unit": "s⁻¹"}, {"measurement": "self-cleavage kobs at 10000 uM GlcN6P", "setting": "glucosamine-6-phosphate [6]", "value": "0.00258 ± 0.00026", "unit": "s⁻¹"}]}, {"variant": "A12G C71U", "values": [{"measurement": "kcat", "setting": "glucosamine-6-phosphate [1]", "value": "0.00146 ± 0.0001", "unit": "s⁻¹"}, {"measurement": "KM", "setting": "glucosamine-6-phosphate [2]", "value": "4.37 ± 0.47", "unit": "mM"}, {"measurement": "self-cleavage kobs at 160 uM GlcN6P", "setting": "glucosamine-6-phosphate [3]", "value": "5.89e-05 ± 1.1e-05", "unit": "s⁻¹"}, {"measurement": "self-cleavage kobs at 640 uM GlcN6P", "setting": "glucosamine-6-phosphate [4]", "value": "0.000183 ± 1.9e-05", "unit": "s⁻¹"}, {"measurement": "self-cleavage kobs at 2500 uM GlcN6P", "setting": "glucosamine-6-phosphate [5]", "value": "0.000525 ± 4.6e-05", "unit": "s⁻¹"}, {"measurement": "self-cleavage kobs at 10000 uM GlcN6P", "setting": "glucosamine-6-phosphate [6]", "value": "0.00102 ± 8.1e-05", "unit": "s⁻¹"}]}, {"variant": "A12U U31G", "values": [{"measurement": "kcat", "setting": "glucosamine-6-phosphate [1]", "value": "0.0183 ± 0.0087", "unit": "s⁻¹"}, {"measurement": "self-cleavage kobs at 40 uM GlcN6P", "setting": "glucosamine-6-phosphate [7]", "value": "0.000567 ± 5.6e-05", "unit": "s⁻¹"}, {"measurement": "self-cleavage kobs at 160 uM GlcN6P", "setting": "glucosamine-6-phosphate [3]", "value": "0.00142 ± 0.00026", "unit": "s⁻¹"}, {"measurement": "self-cleavage kobs at 640 uM GlcN6P", "setting": "glucosamine-6-phosphate [4]", "value": "0.00439 ± 0.00076", "unit": "s⁻¹"}, {"measurement": "self-cleavage kobs at 2500 uM GlcN6P", "setting": "glucosamine-6-phosphate [5]", "value": "0.00841 ± 0.0023", "unit": "s⁻¹"}, {"measurement": "self-cleavage kobs at 10000 uM GlcN6P", "setting": "glucosamine-6-phosphate [6]", "value": "0.0262 ± 0.0045", "unit": "s⁻¹"}]}]}
